Assay [1] has as its target T1, recombinant Cdk5/p25 complex (UniProt Q00535 1-292; Q15078 99-307). In words: BLI. (BLI is a label-free optical method that tracks binding on a fibre tip over time.)
For assay [2], the target named is T1, recombinant Cdk5/p25 complex. Briefly: MST.
For assay [3], the target named is Cdk5 protein alone (recombinant) (UniProt Q00535 1-292). Briefly: MST.

As to ARAFGIPVRCYS [Cdk5i peptide], the Kd in assay [1] amounted to 220 nM; in assay [2] it was 170 nM; in assay [3], 15700 nM.

The term Kd denotes a measure of binding affinity in units of concentration.

Source of the values: paper PMC10120002 (Proceedings of the National Academy of Sciences of the …, 2023).
